Reference: patent publication EP1832653A1

Biological target: monoclonal antibody M75 (MAb M75), secreted from the hybridoma VU-M75, ATCC HB 11128
Experiment: competition ELISA: peptide in solution against immobilized GST-MN for M75

With GGSSGEDDPLGEEDLPSEEDSP [oligopeptide … (aa 51-72) [SEQ ID NO: 104]] as the binder, how does the IC50 read?
The IC50 was 1 ng/mL.
